In US20100292309A1:

Target: H-2Kb-restricted ova peptide SIINFEKL presented on H-2Kb (chicken)
Test: cell-based or functional assay

transgenic OT-I T-cell receptor (TCR) was tested, and the IFN-gamma ELISPOT, spots per well (spots per well) was over 1000.
